Test results reported in the nanobody polyreactivity screen of Harvey et al. (2022).

Experiment: yeast display, Sf9 membrane polyspecificity reagent, FACS + sequencing; frameworks hold sequencing errors
Outline: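 In a synthetic yeast display library (Saccharomyces cerevisiae BJ5465), nanobody expression was induced with galactose for 36–48 hours. FACS gates were set low and high (top ~1%) using anti-HA fluorescence for expression and streptavidin fluorescence for binding of the Sf9 membrane reagent. Each polyreactivity label is drawn from the gate of origin.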
With “QVQLVESGGGLVQAGGSLRLSCAASGSIFGLNAMGWYRQAPGKERELVARISTGSSTNYADSVKGRFTISRDHAKNSVYLQMNSLKPEDTAVYYCNADYPYYPYRENYWGQGTQVTVSS” the “polyreactivity (PSR sort gate)” value was “low polyreactivity”. In the case of “QVQLVESGGGLVQAGGSLRLSCAASGSIFGLYAMGWYRQAPGIERALVAAITTTGGSTYYADSVKGRFTISRDNAKNTVYLQMNSLKPEDTAVYYCNADYVAYGPEYDYWGQGTQVTVSS”, the “polyreactivity (PSR sort gate)” value is reported as “low polyreactivity”. With “QVQLVESGGGLVQAGGSLRLSCAASGSIFGLYAMGWYRQAPGKERELVAAINQSGGSTSYADSVKGRFTISRDNAKNTVYLQMNSLKPEDTAVYYCAAKRSWGATRRAYGRYDYWGQGTQVTVSS” the “polyreactivity (PSR sort gate)” value was “low polyreactivity”. For “QVQLVESGGGLVQAGGSLRLSCAASGSIFGLYAMGWYRQAPGKERELVAAINQSGGSTSYADSVKGRFTISRDNAKNTVYLQMNSLKPEDTAVYYCNRVRLNTEGFDYWGQGTQVTVSS”, the “polyreactivity (PSR sort gate)” value was “low polyreactivity”. With “QVQLVESGGGLVQAGGSLRLSCAASGSIFGNAMGWYRQAPGKERELVAAISRRGGRTYYADSVKGRFTISRDNAKNTVYLQMNSLKPEDTAVYYCNKYVTPWNEMDYWGQGTQVTVSS” the “polyreactivity (PSR sort gate)” value was “high polyreactivity”. In the case of “QVQLVESGGGLVQAGGSLRLSCAASGSIFGPYAMGWYRQAPGKERELVAAITIGGDNTYYADSVKGRFTISRDNAKNTVYLQMNSLKPEDTAVYYCAAKYYCGKPHYYEYYYWGQGTQVTVSS”, the “polyreactivity (PSR sort gate)” value is reported as “low polyreactivity”. With “QVQLVESGGGLVQAGGSLRLSCAASGSIFGPYSMGWYRQAPGKERELVAAISWRGGTTRYADSVKGRFTISRDNAKNTVYLQMNSLKPEDTAVYYCNRTVYSKTQYDYDYWGQGTQVTVSS” the “polyreactivity (PSR sort gate)” value was “high polyreactivity”. For “QVQLVESGGGLVQAGGSLRLSCAASGSIFGQNAMGWYRQAPGKERELVAAITSGAGITYYADSVKGRFTISRDNAKNTVYLQMNSLKPEDTAVYYCNAVPSWTPSPLFDYWGLGTQVTVSS”, the “polyreactivity (PSR sort gate)” value was “low polyreactivity”. For “QVQLVESGGGLVQAGGSLRLSCAASGSIFGRNTMGWYRQAPGKERELVAAISRSGGSTYYADSVKGRFTISRDNAKNTVYLQMNSLKPEDSAVYYCAARGKYDYSGVSFNYWGQGTQVTVSS”, the “polyreactivity (PSR sort gate)” value was “high polyreactivity”. For “QVQLVESGGGLVQAGGSLRLSCAASGSIFGRYAMGWYRQAPGKERELVAAISSSGGRTYYADSVKGRFTISRDNAKNTVYLQMNSLKPEDTAVYYCNAGTPYRGDYWGQGTQVTVSS”, the “polyreactivity (PSR sort gate)” value was “high polyreactivity”. For “QVQLVESGGGLVQAGGSLRLSCAASGSIFGRYAMGWYRQAPGKERELVASITRGAGSTYYADSVKGRFTISRDNAKNTVYLQMNSLKPEDTAVYYCRLAPRYRKGGYWGQGTQVTVSS”, the “polyreactivity (PSR sort gate)” value was “high polyreactivity”. In the case of “QVQLVESGGGLVQAGGSLRLSCAASGSIFGRYGMVWSRPAPGKERELVAAITSATRTNYADSVKGRFTISRDNAKNTVYLQMNSLKPEDTAVYYCAKQTYRRLPQTPYNYWGQGSQVTVSS”, the “polyreactivity (PSR sort gate)” value is reported as “low polyreactivity”. With “QVQLVESGGGLVQAGGSLRLSCAASGSIFGRYVMGWYRQAPGKERELVAAINRSGGRTYYADSVKGRFTISRDTAKNTVYLQMNSLKPEDTAVYYCATYTRSSASKEVPYDYWGQGTEVTVSS” the “polyreactivity (PSR sort gate)” value was “high polyreactivity”. For “QVQLVESGGGLVQAGGSLRLSCAASGSIFGSNAMGWYRQAPGKERELVAAISYRGGSTYYADSVKGRFTISRDNAKNTVYLQMNSLKPEDTAFYYCAKVSSYKPYDYWGLGTQVTVSS”, the “polyreactivity (PSR sort gate)” value was “low polyreactivity”. With “QVQLVESGGGLVQAGGSLRLSCAASGSIFGSNAMGWYRQAPGKERELVAAITNTGRTNYADSVKGRFTISRDNAKNTVYLQMNSLKPEDTAVYYCNTDCYEFTHFVGGWYQIIDYDYWGQGSQVTVSS” the “polyreactivity (PSR sort gate)” value was “low polyreactivity”. With “QVQLVESGGGLVQAGGSLRLSCAASGSIFGSNAMGWYRQSPGKERELVAAISRSGGSTYYADSVKGRFTISRDNAKNTVYLQMNSLKPEDTAVYYCAVVASRSHTETPEYDFWGQVTQVTVSS” the “polyreactivity (PSR sort gate)” value was “low polyreactivity”. With “QVQLVESGGGLVQAGGSLRLSCAASGSIFGSNTMGWYRQAPGKERELVAAINSSGGSTYYADSVKGRFTISRDNAKNTVYLQMNSLKPEDTEVYYCNAASYRFFPYLYYYWGQGTQVTVSS” the “polyreactivity (PSR sort gate)” value was “high polyreactivity”. For “QVQLVESGGGLVQAGGSLRLSCAASGSIFGSYAMGWYRQAPGKERELVAGITYRGSSTYYADSVKGRFTISRDNAKNTVYLQMNSLKPEDTAVYYCAADPVFDEYDYWGQGTQVTVSS”, the “polyreactivity (PSR sort gate)” value was “low polyreactivity”. With “QVQLVESGGGLVQAGGSLRLSCAASGSIFGSYAMGWYRQAPGKERELVASITRVDSTNYADSVKGRFTISRDNAKNTVYLQMNSLKPEDTAVYYCNAGSRTTAGGMDSWGQGTQVTVSS” the “polyreactivity (PSR sort gate)” value was “low polyreactivity”. With “QVQLVESGGGLVQAGGSLRLSCAASGSIFGSYAMGWYRQAPGKERSTYYADSVKGRFTISRDNAKNTVYLQMNSLKPEDTAVYYCAADTYGYQGSAGGHWGQGTQVTVSS” the “polyreactivity (PSR sort gate)” value was “low polyreactivity”. For “QVQLVESGGGLVQAGGSLRLSCAASGSIFGSYDMGWYRQAPGKERELVAAISEGGGSTYYADTVKGRFTISRDNAMNTVYLQMYSLKPEDTAVYYCAADLILSYYPYYQDYYWGQGTQVTVSS”, the “polyreactivity (PSR sort gate)” value was “low polyreactivity”. For “QVQLVESGGGLVQAGGSLRLSCAASGSIFGSYTMGWYRQAPGKERELVAAINASGGRTYYADSVKGRFTISRDNAKNTVYLQMNSLKPEDTAVYYCNKATYYQTYDYWGQGTQVTVSS”, the “polyreactivity (PSR sort gate)” value was “high polyreactivity”. With “QVQLVESGGGLVQAGGSLRLSCAASGSIFGSYTMGWYRQAPGKERELVAVINWSGDRTYYADSVKGRFTISRDNAKNNVYLHMNSLKPEDTAVYYCAARERAGYSGIRYNYWGQGSQVTVSS” the “polyreactivity (PSR sort gate)” value was “low polyreactivity”. With “QVQLVESGGGLVQAGGSLRLSCAASGSIFGTNAMGCYRQAPGKERELVAAIDGGSTTYYADSVKGRFTISRDNAKNTVYLQMNSLKPEDTAVYYCAADGTRSLNYAGYAGYEYWGQGTQVTVSS” the “polyreactivity (PSR sort gate)” value was “low polyreactivity”. For “QVQLVESGGGLVQAGGSLRLSCAASGSIFGTNAMGWYRQAPGKERELVAAIDGGSTTYYADSVKGRFTISRDNAKNTVYLQMNSLKPEDTAVYYCAADGTRYLNYEGYAGYEYWGQGTQVTVSS”, the “polyreactivity (PSR sort gate)” value was “low polyreactivity”. With “QVQLVESGGGLVQAGGSLRLSCAASGSIFGTNAMGWYRQAPGKERELVAAINWSGGTTYYADSVKGRFTISRDNAKNTVYLQMNSLKPEDTAVYYCATVFFVLPPTRFDSWGQGTQVTVSS” the “polyreactivity (PSR sort gate)” value was “low polyreactivity”. In the case of “QVQLVESGGGLVQAGGSLRLSCAASGSIFGTNAMGWYRQAPGKERELVATITSAGSTYYADSVKGRFTISRDNAKNTVYLQMNSLKPEDTAVYYCARQATGYVYREYDYWGQGTQVTVSS”, the “polyreactivity (PSR sort gate)” value is reported as “low polyreactivity”. In the case of “QVQLVESGGGLVQAGGSLRLSCAASGSIFGTNGMGWYRQAPGKERELVAAITRRGGSTYADSVKGRFTISRDNAKNTVYLQMNSLKPEDTAVYYCAVDQGYVVRLAWIYGYWGQGTQVTVSS”, the “polyreactivity (PSR sort gate)” value is reported as “low polyreactivity”. With “QVQLVESGGGLVQAGGSLRLSCAASGSIFGTYAIGWDRQAPGKERELVAAISRGGRTYYADSVKGRFTISRDNAKNTVYLQMNSLKPEDTAVYYCAARTVGLRGYYYWGQGTQVTVSS” the “polyreactivity (PSR sort gate)” value was “high polyreactivity”. For “QVQLVESGGGLVQAGGSLRLSCAASGSIFGTYAMGWYRQAPGKEREFVAAISWADGSTYYADSVKGRFTISRDNAKNTVYLQMNSLNPEDTAVFYCAVRRVGSIYIDRYIYVVADYDYWGQGTQVTVSS”, the “polyreactivity (PSR sort gate)” value was “low polyreactivity”. For “QVQLVESGGGLVQAGGSLRLSCAASGSIFGTYAMGWYRQAPGKEREFVAAISWSDGSTYYADSVKGRFTISRDNAKNTVYLQMNSLKPEDTAVYYCAAKSDPYRHDYWGQGTQVTVSS”, the “polyreactivity (PSR sort gate)” value was “low polyreactivity”. In the case of “QVQLVESGGGLVQAGGSLRLSCAASGSIFGTYAMGWYRQAPGKERELVAAISWSDGSTYYADSVKGRFTISRDNAKNTVYLQMNSLKPEDTAVYYCAKVYRSIGPNVSRYGLSYYYWGQGSQVTVSS”, the “polyreactivity (PSR sort gate)” value is reported as “low polyreactivity”.
